Results on ten substances are retold here after patent US20240109955A1.

Test in all cases: cell-based or functional assay
Test [1] has as its target SARS-CoV-2 spike (S) protein, Omicron sublineage BQ.1.1 (SARS-CoV-2).
For test [2], the target named is SARS-CoV-2 spike protein, Omicron sublineage BF.7 (SARS-CoV-2) (UniProt P0DTC2).
For test [3], the target named is SARS-CoV-2 spike protein, Omicron BA.4/5 (SARS-CoV-2).
Test [4] concerns the target SARS-CoV-2 Omicron BA.4/5 spike protein (SARS-CoV-2).
In test [5] the target is SARS-CoV-2 spike protein, Omicron sublineage XBB1.5 (SARS-CoV-2) (UniProt P0DTC2).
For test [6], the target named is SARS-CoV-2 spike (S) protein, Omicron sublineage BA.2.75.2 (SARS-CoV-2).
The target of test [7] is SARS-CoV-2 spike protein, Omicron sublineage BQ.1.1 (SARS-CoV-2) (UniProt P0DTC2).
The target of test [8] is SARS-CoV-2 Omicron BA.2.75.2 spike protein (SARS-CoV-2).
Test [9] addresses SARS-CoV-2 spike protein, Omicron sublineage BA.4/5 (SARS-CoV-2) (UniProt P0DTC2).
The target in test [10] is SARS-CoV-2 spike protein, Omicron BQ.1.1 (SARS-CoV-2).
Test [11] has as its target SARS-CoV-2 spike (S) protein, Omicron sublineage BA.4/5 (SARS-CoV-2).
In test [12] the target is SARS-CoV-2 Omicron BQ.1.1 spike protein (SARS-CoV-2).
In test [13] the target is SARS-CoV-2 Omicron BA.1 spike protein (SARS-CoV-2) (UniProt P0DTC2).
In test [14] the target is SARS-CoV-2 Omicron BA.4/5 spike protein ([change]) (SARS-CoV-2) (UniProt P0DTC2).
Test [15] addresses SARS-CoV-2 spike protein, Omicron sublineage BA.2 (SARS-CoV-2) (UniProt P0DTC2).
The target in test [16] is SARS-CoV-2 spike protein, Omicron sublineage BA.2.12.1 (SARS-CoV-2) (UniProt P0DTC2).
For test [17], the target named is SARS-CoV-2 Omicron XBB spike protein (SARS-CoV-2) (UniProt P0DTC2).
Test [18] has as its target SARS-CoV-2 Omicron BA.2.75.2 spike protein (SARS-CoV-2) (UniProt P0DTC2).
For test [19], the target named is SARS-CoV-2 spike protein, Omicron sublineage XBB (SARS-CoV-2) (UniProt P0DTC2).
In test [20] the target is SARS-CoV-2 Omicron BQ.1.1 spike protein (SARS-CoV-2) (UniProt P0DTC2).

Chain of MX413 (A19-61 x A23-58H/B1-182L) (bispecific antibody) (chain): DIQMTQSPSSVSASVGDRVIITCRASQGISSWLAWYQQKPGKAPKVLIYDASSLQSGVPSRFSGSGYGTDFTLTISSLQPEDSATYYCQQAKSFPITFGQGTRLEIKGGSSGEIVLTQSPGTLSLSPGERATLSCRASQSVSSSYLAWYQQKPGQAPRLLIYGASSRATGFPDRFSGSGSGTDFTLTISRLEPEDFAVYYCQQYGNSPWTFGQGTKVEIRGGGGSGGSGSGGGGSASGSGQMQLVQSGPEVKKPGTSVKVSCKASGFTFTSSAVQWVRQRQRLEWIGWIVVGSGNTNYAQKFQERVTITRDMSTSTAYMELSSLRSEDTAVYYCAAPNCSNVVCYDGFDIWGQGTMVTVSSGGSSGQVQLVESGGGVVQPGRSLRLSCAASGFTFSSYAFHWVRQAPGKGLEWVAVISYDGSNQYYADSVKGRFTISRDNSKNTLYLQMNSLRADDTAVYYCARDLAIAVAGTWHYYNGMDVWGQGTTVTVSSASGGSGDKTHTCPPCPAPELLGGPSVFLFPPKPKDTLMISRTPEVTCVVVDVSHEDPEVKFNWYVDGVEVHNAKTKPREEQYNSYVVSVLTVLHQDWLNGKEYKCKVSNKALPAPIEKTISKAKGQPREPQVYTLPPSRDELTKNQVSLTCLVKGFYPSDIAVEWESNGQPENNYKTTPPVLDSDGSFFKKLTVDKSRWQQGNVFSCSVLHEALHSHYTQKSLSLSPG
Chain of MX492 (A19-46 x A23-58H/B1-182L) (bispecific antibody) (chain): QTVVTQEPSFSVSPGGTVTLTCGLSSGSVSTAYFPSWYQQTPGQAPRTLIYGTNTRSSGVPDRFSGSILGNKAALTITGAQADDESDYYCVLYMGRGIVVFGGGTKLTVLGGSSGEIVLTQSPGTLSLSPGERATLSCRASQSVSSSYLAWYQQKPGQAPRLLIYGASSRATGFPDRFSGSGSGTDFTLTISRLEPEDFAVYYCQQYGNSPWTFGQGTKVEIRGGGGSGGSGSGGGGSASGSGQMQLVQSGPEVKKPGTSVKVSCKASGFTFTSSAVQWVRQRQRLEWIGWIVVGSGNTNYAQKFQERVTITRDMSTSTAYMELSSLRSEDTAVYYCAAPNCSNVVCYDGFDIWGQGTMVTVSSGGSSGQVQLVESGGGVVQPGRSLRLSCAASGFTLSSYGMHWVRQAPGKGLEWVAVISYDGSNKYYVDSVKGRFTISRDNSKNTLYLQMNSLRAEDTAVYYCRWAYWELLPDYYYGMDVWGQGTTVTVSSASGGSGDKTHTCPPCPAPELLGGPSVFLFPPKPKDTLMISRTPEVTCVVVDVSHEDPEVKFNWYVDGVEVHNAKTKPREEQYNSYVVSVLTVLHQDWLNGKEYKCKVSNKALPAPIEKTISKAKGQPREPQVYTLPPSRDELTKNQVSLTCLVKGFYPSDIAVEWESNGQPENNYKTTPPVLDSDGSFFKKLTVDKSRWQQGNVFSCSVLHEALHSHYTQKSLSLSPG
Chain of A19-46.1 (antibody) (VH): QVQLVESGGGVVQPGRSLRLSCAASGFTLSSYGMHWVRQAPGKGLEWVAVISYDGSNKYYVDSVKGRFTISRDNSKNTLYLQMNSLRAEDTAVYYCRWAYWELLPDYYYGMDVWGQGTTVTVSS
Chain of A19-46.1 (antibody) (VL): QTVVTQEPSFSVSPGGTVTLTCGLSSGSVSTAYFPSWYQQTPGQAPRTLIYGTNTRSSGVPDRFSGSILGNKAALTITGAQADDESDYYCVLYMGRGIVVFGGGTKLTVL
Chain of A19-46 (antibody) (VH): as the sequence (VH) above
Chain of A19-46 (antibody) (VL): as the sequence (VL) above

As to A19-46 (antibody), the IC50, pseudovirus neutralization in test [1] is 0.386 µg/mL; in test [2], 5300 nM; in [3] it was above 10 µg/mL; in test [4], above 10 µg/mL; in test [5] it was above 10000 nM; in [6] it was above 10 µg/mL. The IC50, pseudovirus neutralization in [7] was 386 nM; in test [8] it was above 10 µg/mL; in [9], above 10000 nM; in test [10], 0.386 µg/mL; in test [11], above 10 µg/mL; in [12], 0.386 µg/mL. Moreover, the IC80, pseudovirus neutralization was 1.11 µg/mL in test [1]; above 10000 nM in [2]; above 10 µg/mL in test [3]; above 10 µg/mL in test [4]; above 10000 nM in test [5]; above 10 µg/mL in test [6]. The IC80, pseudovirus neutralization in [7] was 1110 nM; in test [8], above 10 µg/mL; in test [9], above 10000 nM; in test [10], 1.11 µg/mL; in test [11], above 10 µg/mL; in [12], 1.11 µg/mL.
In the case of A19-46.1 (antibody), the IC50, pseudovirus neutralization is 77 nM in test [13] and above 10000 nM in test [14]. The IC80, pseudovirus neutralization in test [13] was 211 nM; in [14] it was above 10000 nM.
As for A19-61.1 (antibody), the IC50, pseudovirus neutralization in test [13] was above 10000 nM; in [14], 19 nM. The IC80, pseudovirus neutralization is above 10000 nM in [13] and 31 nM in test [14].
With A23-58.1 (antibody), in test [15], the IC50, pseudovirus neutralization amounted to 263 nM and the IC80, pseudovirus neutralization is 1080 nM. In [16], the IC50, pseudovirus neutralization was determined as 100 nM and the IC80, pseudovirus neutralization came out at 504 nM.
In the case of A23-58H/B1-182L hybrid antibody, the IC50, pseudovirus neutralization in [13] was 53 nM; in [14], above 10000 nM. The figures for the IC80, pseudovirus neutralization in test [13] and in test [14] were 90 nM and above 10000 nM, respectively.
For B1-182.1 (antibody), in test [15], the IC50, pseudovirus neutralization was found to be 320 nM and the IC80, pseudovirus neutralization was determined as 1210 nM. In test [16], this substance yielded an IC50, pseudovirus neutralization of 165 nM and an IC80, pseudovirus neutralization of 1380 nM.
On to “MX413 (A19-61 x A23-58H/B1-182L) (bispecific antibody)”, for which the IC50, pseudovirus neutralization in test [13] came out at 1290 nM; in test [14] it was 4 nM. Also, the results for the IC80, pseudovirus neutralization in [13] and in test [14] were 6540 nM and 8 nM, respectively.
For the substance “MX492 (A19-46 x A23-58H/B1-182L) (bispecific antibody)”, the IC50, pseudovirus neutralization in test [13] was 1 nM; in test [14], above 10000 nM. Besides, the IC80, pseudovirus neutralization is 3 nM in [13] and above 10000 nM in [14].
With S2E12 (antibody), in [15], the IC50, pseudovirus neutralization was 9.9 nM and the IC80, pseudovirus neutralization was determined as 48.2 nM. In [16], this substance came in with an IC50, pseudovirus neutralization of 15.6 nM and an IC80, pseudovirus neutralization of 46.6 nM.
With bebtelovimab (antibody), the IC50, pseudovirus neutralization is 14.3 nM in test [15]; 3.28 nM in test [2]; above 10 µg/mL in test [17]; 1 nM in test [13]; 8.52 nM in test [16]; above 10000 nM in test [5]. The IC50, pseudovirus neutralization in test [7] is above 10000 nM; in test [9], 1.88 nM; in test [18], 0.00567 µg/mL; in [19] it was above 10000 nM; in [20], above 10 µg/mL. Besides, the IC80, pseudovirus neutralization in [15] is 18.5 nM; in test [2], 26.9 nM; in [17], above 10 µg/mL; in [13], 7 nM; in [14] it was 1 nM; in [16] it was 14.8 nM. The IC80, pseudovirus neutralization in test [5] is above 10000 nM; in test [7], above 10000 nM; in [9] it was 3.74 nM; in test [18], 0.0207 µg/mL; in [19] it was above 10000 nM; in test [20] it was above 10 µg/mL.
